This is an account of results in US20230242646A1 (JJP BIOLOGICS SP Z O O, published 2023).

Assay [1] has as its target T1, membrane-bound full-length human CD89 on HEK293F cells (human, UniProt P24071 22-287).
T1 construct: 2 or transient transfectants; also called membrane human CD89; human FcaRI
Description: FACS, antibody before serum IgA on HEK293F-huCD89; IgA detected.
Description: Then, 10 µL/tube (i.e., 0.1 x 10⁶ cells) of these cells were incubated with 50 µL titrated (in PBS/BSA/NaN₃) purified mouse anti-human CD89 antibody/tube for 30 minutes at 4° C. […] After extensive washing in PBS/BSA/NaN₃, 1:200 diluted PE-conjugated streptavidin (Jackson ImmunoResearch) was added, and incubated for 30 minutes at 4° C. After extensive washing in PBS/BSA/NaN₃, cells were fixed in 2% formaldehyde in PBS/BSA/NaN₃ for 30 minutes at 4° C.

Assay [2] has as its target T1, membrane-bound full-length human CD89 …. Description: FACS, antibody before secretory IgA on HEK293F-huCD89; IgA detected. In general terms: In flow cytometry, cells or beads pass a laser one at a time.
The target of assay [3] is T2, recombinant C-terminal polyhistidine-tagged human (extracellular) CD89 (Sino Biological) (human, UniProt P24071 22-227).
T2 construct: extracellular domain; bought protein; also called rhuCD89; soluble monomeric rhuCD89
Description: ELISA, coated rhuCD89. A general note: In an ELISA, binding on a coated surface is turned into a signal by an enzyme label.
Description: After extensive washing with PBS/0.05% Tween 20, plates were blocked with PBS/0.05% Tween 20/1% BSA (Roche) for 1 hour at RT. Subsequently, plates were incubated with 50 µL titrated (in block buffer) purified mouse anti-human CD89 antibody/well for 1 hour at RT. […] After extensive washing in PBS/0.05% Tween 20, binding of antibodies on rhuCD89 was determined with 1:5,000 diluted horseradish peroxidase (HRP)-conjugated goat anti-mouse IgG Fcy-specific antibodies (Jackson ImmunoResearch) for 1 hour at RT, followed by a ready-to-use solution of TMB substrate (Invitrogen) for colorimetric detection.
After extensive washing with PBS/0.05% Tween 20, plates were blocked with PBS/0.05% Tween 20/1% BSA (Roche) for 1 hour at RT. […] After extensive washing in PBS/0.05% Tween 20, binding of antibodies on rhuCD89 was determined with 1:5,000 diluted horseradish peroxidase (HRP)-conjugated goat anti-human IgG Fcy-specific antibodies (Jackson ImmunoResearch) for 1 hour at RT, followed by a ready-to-use solution of TMB substrate (Invitrogen) for colorimetric detection.

Assay [4] deals with T3, chimeric bovine EC1-Fcgamma2R/human EC2-CD89 on HEK293F cells (bovine/human chimera).
T3 chain: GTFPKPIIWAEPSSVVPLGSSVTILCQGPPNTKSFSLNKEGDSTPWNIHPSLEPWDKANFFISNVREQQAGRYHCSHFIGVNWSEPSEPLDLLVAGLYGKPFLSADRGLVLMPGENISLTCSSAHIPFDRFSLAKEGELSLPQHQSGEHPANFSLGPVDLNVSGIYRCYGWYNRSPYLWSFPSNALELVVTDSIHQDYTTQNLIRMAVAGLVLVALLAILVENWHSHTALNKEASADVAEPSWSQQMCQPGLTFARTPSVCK
Description: FACS, transiently transfected HEK293F.
Description: (§1) To this end, transient transfected HEK293F cells were put at 10 × 10⁶ cells/mL in ice-chilled phosphate-buffered saline containing 0.1% BSA (Sigma)/0.05% NaN₃ (PBS/BSA/NaN₃) supplemented with 50 µg/mL human IgGs (blocking Fcy receptors; Sigma) for 10 minutes at 4° C. Then, 10 µL/tube (i.e., 0.1 × 10⁶ cells) of these cells were incubated with or without 100 µL purified mouse anti-human CD89 antibody at 10 µg/mL (in PBS/BSA/NaN₃) for 30 minutes at 4° C. […] After extensive washing in PBS/BSA/NaN₃, cells were subsequently incubated with 1:200 diluted PE-conjugated goat anti-mouse IgG Fcy-specific antibodies (Jackson ImmunoResearch) for 30 minutes at 4° C. After extensive washing in PBS/BSA/NaN₃, cells were fixed in 2% formaldehyde in PBS/BSA/NaN₃ for 30 minutes at 4° C.

In assay [5] the target is T4, membrane full-length bovine Fcgamma2R on HEK293F cells (bovine).
T4 construct: also called bovine Fcy2R
T4 chain: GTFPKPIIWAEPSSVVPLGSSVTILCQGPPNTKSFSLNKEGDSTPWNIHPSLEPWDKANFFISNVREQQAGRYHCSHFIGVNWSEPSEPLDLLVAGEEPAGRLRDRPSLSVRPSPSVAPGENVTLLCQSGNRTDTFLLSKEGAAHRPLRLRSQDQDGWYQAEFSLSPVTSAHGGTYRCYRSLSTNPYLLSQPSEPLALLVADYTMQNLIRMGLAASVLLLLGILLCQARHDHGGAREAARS
The assay can be described thus: FACS, transiently transfected HEK293F.
Description: as §1

Assay [6] has as its target membrane human CD89 on ex vivo primary human neutrophilic granulocytes or monocytic U937 cells (human, UniProt P24071 22-287). Description: cell-based or functional assay.
In assay [7] the target is T1, membrane-bound full-length human CD89 …. Description: FACS HEK293F-huCD89, 10 ug/mL; competitor PE-A59.
Description: (§2) Then, 10 µL/tube (i.e., 0.1 × 10⁶ cells) of these cells were incubated with or without 100 µL purified mouse anti-human CD89 antibody at 10 µg/mL (in PBS/BSA/NaN₃) for 30 minutes at 4° C. […] After extensive washing in PBS/BSA/NaN₃, cells were fixed in 2% formaldehyde in PBS/BSA/NaN₃ for 30 minutes at 4° C.
The target in assay [8] is T5, chimeric human EC1-CD89/bovine EC2-Fcgamma2R (bovine TM and IC) on HEK293F cells (human/bovine chimera).
T5 construct: also called human EC1-CD89 (version with bovine transmembrane-intracellular region)
The assay can be described thus: FACS, 10 µg/mL, transiently transfected HEK293F.
Description: as §1

The target of assay [9] is T6, chimeric human EC1-CD89/bovine EC2-Fcgamma2R (human TM and IC) on HEK293F cells (human/bovine chimera).
T6 construct: also called human EC1-CD89 (version with human transmembrane-intracellular region)
Description: FACS, 10 µg/mL, transiently transfected HEK293F.
Description: as §1

For assay [10], the target named is T7, chimeric human/cynomolgus monkey CD89-II on HEK293F cells (human/cynomolgus chimera, UniProt P24071 22-287).
T7 construct: also called dIle47 - Ile71 human EC1-CD89; II (47-71)
T7 chain: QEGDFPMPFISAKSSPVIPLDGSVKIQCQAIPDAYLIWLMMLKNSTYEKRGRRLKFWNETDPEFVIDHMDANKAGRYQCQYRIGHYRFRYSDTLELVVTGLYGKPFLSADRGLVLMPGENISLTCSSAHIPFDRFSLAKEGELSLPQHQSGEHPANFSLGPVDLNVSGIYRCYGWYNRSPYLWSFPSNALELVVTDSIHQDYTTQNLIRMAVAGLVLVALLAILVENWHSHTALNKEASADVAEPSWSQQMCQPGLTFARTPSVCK
The assay can be described thus: FACS, 10 µg/mL, transiently transfected HEK293F.

In assay [11] the target is T8, chimeric human/cynomolgus monkey CD89-IV on HEK293F cells (human/cynomolgus chimera, UniProt P24071 22-287).
T8 construct: also called dArg97 - Gly121 human EC1-CD89
T8 chain: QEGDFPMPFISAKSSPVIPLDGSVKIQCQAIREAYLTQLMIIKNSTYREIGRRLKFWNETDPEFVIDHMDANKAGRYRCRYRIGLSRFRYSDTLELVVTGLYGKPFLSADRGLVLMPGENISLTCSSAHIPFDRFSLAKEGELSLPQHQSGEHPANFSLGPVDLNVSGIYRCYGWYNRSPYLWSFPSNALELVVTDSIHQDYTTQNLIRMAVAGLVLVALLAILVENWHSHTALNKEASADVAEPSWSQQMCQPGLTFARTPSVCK
Description: FACS, 10 µg/mL, transiently transfected HEK293F.

The target in assay [12] is T9, chimeric human/cynomolgus monkey CD89-I on HEK293F cells (human/cynomolgus chimera, UniProt P24071 22-287).
T9 construct: also called dGln22 - Lys46 human EC1-CD89; I (22-46)
T9 chain: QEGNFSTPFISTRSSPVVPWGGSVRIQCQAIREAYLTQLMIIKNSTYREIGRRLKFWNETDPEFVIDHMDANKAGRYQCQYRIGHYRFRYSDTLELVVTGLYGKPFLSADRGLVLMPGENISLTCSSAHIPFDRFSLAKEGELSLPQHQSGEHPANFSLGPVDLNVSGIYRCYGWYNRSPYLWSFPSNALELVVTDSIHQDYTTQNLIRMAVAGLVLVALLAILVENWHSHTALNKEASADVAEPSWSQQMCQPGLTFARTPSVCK
Description: FACS, 10 µg/mL, transiently transfected HEK293F.

The target of assay [13] is T1, membrane-bound full-length human CD89 …. The assay can be described thus: FACS HEK293F-huCD89, 10 ug/mL; competitor PE-MIP8a.
Description: as §2

B1: CD89/IgA blocking mouse anti-human CD89-specific antibody 10E7 (antibody, V domains shown)
VH: EVQLVESGGGLVQPGGSLKLSCAASGLTFSSYGMSWVRQTPDKRLELVATINGNGDITYYPDSVKGRFTISRDNAKNTLYLQMSSLKSEDTAMYYCARDYDYDYAMDYWGQGTSVTVSS
VL: DIQMTQSTSSLSASLGDSVTISCRASQDIINYLNWYQQKPDGTVKLLIYYTSRLHSGVPSRFSGSGSGTEYSLTVSNLEKEDIATYFCQQGKTLPYTFGGGTKLEIK
notes: biotinylated in the Octet assay; also called mouse 10E7
B1: the “IC50 (read off the curve)” value in assay [1] is approximately 0.7 mg/L; in [2] it was approximately 1 mg/L. Besides, in assay [3], the EC50 came to 0.02 mg/L. For the same molecule, the binding result in assay [4] is recorded as “no binding (tested: 10 µg/mL)”; in [5], “no binding (tested: 10 µg/mL)”; in [8], “binds”; in [9], “binds”; in [10] it was “binds”; in [11], “binds”. In assay [12], the binding result is listed as “binds”. Moreover, the “IC50 (read off the bars), binding of granulocytes to plate-bound serum IgA [Donor 2]” value in [6] is approximately 0.4 mg/L. The “% blocking of PE-A59 binding” value in [7] is less than 25%. Besides, the “% blocking of PE-MIP8a binding” value in assay [13] was less than 25%.

As usually defined, the EC50 is the concentration needed to bring the measured effect to its halfway point.
